B1: UniBody molecule of antibody 098 (other)
VH: QVQLVQSGAEVKKPGASVKVSCKASGYTFTNFGISWVRQAPGQGLEWMGWISAFNGHTDYSQKVQGRVTMTTDTSTSTAYMELRSLRSDDTAVFYCARSHYYGSGSPFDYWGQGTLVTVSS
VL: DIQMTQSPSSLSASVGDRVTITCRASQGISNWLAWYQQKPEKAPKSLIYAASSLQSGVPSRFSGSGSGTDFTLTISSLQPEDFATYYCHQYKSYPWTFGQGTKVEIK
B2: Uni-1016-005 (other)
VH: QVQLVQSGAEVKKPGSSVKVSCKASGGTFSSYGFGWVRQAPGQGLEWMGRISPILGIANYAQMFQGRVTITADKSTSTAYMELSSLRSEDTAVYYCARDVGYDWPDTFDIWGQGTMVIVSS
VL: B1 VL with N31S, S65G, H89Q, K92N, Y94F, W96P
notes: also called UniBody molecule of antibody 005
B3: UniBody molecule of antibody 024 (other)
VH: EVQLLESGGGLVQPGGSLRLSCVASGFTFSSYAMSWVRQAPGKGLEWVSAISGSSGGSTYYVDSVKGRFTISRANSKNTLYLQMNSLRAEDTAVYYCAKDLDRGWMGYFGYWGQGTLVTVSS
VL: DIQMTQSPSSVSASVGDRVTITCRASQGISSWLAWYQHKPGKAPKLLIYAASSLQSGVPSRFSGSGSGTDFTLTISSLQPEDFATYYCQQANSFPTFGQGTRLEIK
B4: Uni-1016-069-TE (other)
VH: QVQLVQSGAEVKKPGASVKVSCETSGYTFTSYGISWVRQAPGHGLEWMGWISAYNGYTNYAQKLQGRVTMTTDTSTSTAYMELRSLRSDDTAVYYCARDLRGTNYFDYWGQGTLVTVSS
VL: DIQMTQSPSSVSASVGDRVTITCRASQGISNWLAWFQHKPGKAPKLLIYAASSLLSGVPSRFSGSGSGTDFTLTISSLQPEDFATYYCQQANSFPITFGQGTRLEIK
notes: also called UniBody molecule of antibody 069
B5: UniBody molecule of antibody 181 (other)
VH: B4 VH with E23K, T24A, H43Q, A53T, N104A
VL: B4 VL with F36Y
B6: Uni-1016-045-TE (other)
VH: EVQLLESGGGLVQPGGSLRLSCAASGFTFSSYAMSWVRQAPGKGLEWVSVISGSGGITYYADSVKGRFTISRDNSKNTLYLQMNSLRAEDTAVYYCARDRGWGSDYWGQGTLVTVSS
VL: EIVLTQSPATLSLSPGERATLSCRASQSVSSYLAWYQQKPGQAPRLLIYDASNRATGIPARFSGSGSGTDFTLTISSLEPEDFAVYYCQQRSNWPFTFGPGTKVDIK
notes: also called UniBody molecule of antibody 045
B7: UniBody molecule of antibody 008 (other)
VH: EVQLVQSGAEVKKPGESLKISCKGSGYSFTSYWIGWVRQMPGKGLEWMGIIYPGDSETRYSPSFQGQVTISADKSISTAYLQWSSLKASDTAMYYCARQEITGEFDYWGQGTLVTVSS
VL: AIQLTQSPSSLSASVGDRVTITCRASQGISSALAWYQQKPGKAPKLLIYDASSLESGVPSRFSGSGSGTDFTLTISSLQPEDFATYYCQQFNSYPRTFGQGTKVEIK
B8: UniBody molecule of antibody 035 (other)
VH: B7 VH with E57D, S84N
VL: AIQLTQSPSSLSASVGDRVTITCRASQGISSALAWYQQKPGKAPKLLIYDASSLESGVPSRFSGSGSGTDFTLTISSLQPEDFATYYCQQFNSYPMYTFGQGTKLEIK
B9: IgG1-1016-069 TH7Δ6-9 (antibody, V domains shown)
VH: B4 VH
VL: B4 VL
notes: human kappa; also called IgG1 TH7Δ6-9 mutant of 069
B10: Uni-IgG1-1016-069 (antibody, V domains shown)
VH: B4 VH
VL: B4 VL
notes: human kappa; also called Hinge deleted IgG1 (Uni-IgG1) of 069; UniBody-IgG1
B11: IgG1-1016-069-C220S (antibody, V domains shown)
VH: B4 VH
VL: B4 VL
notes: human kappa; also called IgG1 C220S mutant of 069
B12: IgG1-1016-069-ΔC220 (antibody, V domains shown)
VH: B4 VH
VL: B4 VL
notes: human kappa; also called IgG1 ΔC220 mutant of 069
B13: IgG1-1016-069-Hinge IgG2 (antibody, V domains shown)
VH: B4 VH
VL: B4 VL
notes: human kappa; also called IgG1 Hinge-IgG2 variant of 069
B14: IgG2-1016-069 (antibody, V domains shown)
VH: B4 VH
VL: B4 VL
notes: IgG2 format of clone 069; also called IgG2 backbone variant of 069
B15: IgG1-1016-069-Hinge IgG3 (antibody, V domains shown)
VH: B4 VH
VL: B4 VL
notes: also called IgG1 Hinge-IgG3 variant of 069

15 molecules from US20150329642A1 (Genmab, published 2015) can be followed below.

The EC50 is the concentration giving half of the maximal effect. Higher therefore signals a need for much substance.

Numbering of substitutions follows the chain as printed. Names and notes keep the numbering of the source.

In one assay the target is T1, human c-Met, membrane-bound on cells (human, UniProt P08581 25-1390).
T1 construct: whole, on cells; A431 cells carry on average 30,000 copies of c-Met per cell (Qifi); also called c-Met expressed on A431 cells; c-Met on A549 cells
T1 sequence (P08581 25-1390): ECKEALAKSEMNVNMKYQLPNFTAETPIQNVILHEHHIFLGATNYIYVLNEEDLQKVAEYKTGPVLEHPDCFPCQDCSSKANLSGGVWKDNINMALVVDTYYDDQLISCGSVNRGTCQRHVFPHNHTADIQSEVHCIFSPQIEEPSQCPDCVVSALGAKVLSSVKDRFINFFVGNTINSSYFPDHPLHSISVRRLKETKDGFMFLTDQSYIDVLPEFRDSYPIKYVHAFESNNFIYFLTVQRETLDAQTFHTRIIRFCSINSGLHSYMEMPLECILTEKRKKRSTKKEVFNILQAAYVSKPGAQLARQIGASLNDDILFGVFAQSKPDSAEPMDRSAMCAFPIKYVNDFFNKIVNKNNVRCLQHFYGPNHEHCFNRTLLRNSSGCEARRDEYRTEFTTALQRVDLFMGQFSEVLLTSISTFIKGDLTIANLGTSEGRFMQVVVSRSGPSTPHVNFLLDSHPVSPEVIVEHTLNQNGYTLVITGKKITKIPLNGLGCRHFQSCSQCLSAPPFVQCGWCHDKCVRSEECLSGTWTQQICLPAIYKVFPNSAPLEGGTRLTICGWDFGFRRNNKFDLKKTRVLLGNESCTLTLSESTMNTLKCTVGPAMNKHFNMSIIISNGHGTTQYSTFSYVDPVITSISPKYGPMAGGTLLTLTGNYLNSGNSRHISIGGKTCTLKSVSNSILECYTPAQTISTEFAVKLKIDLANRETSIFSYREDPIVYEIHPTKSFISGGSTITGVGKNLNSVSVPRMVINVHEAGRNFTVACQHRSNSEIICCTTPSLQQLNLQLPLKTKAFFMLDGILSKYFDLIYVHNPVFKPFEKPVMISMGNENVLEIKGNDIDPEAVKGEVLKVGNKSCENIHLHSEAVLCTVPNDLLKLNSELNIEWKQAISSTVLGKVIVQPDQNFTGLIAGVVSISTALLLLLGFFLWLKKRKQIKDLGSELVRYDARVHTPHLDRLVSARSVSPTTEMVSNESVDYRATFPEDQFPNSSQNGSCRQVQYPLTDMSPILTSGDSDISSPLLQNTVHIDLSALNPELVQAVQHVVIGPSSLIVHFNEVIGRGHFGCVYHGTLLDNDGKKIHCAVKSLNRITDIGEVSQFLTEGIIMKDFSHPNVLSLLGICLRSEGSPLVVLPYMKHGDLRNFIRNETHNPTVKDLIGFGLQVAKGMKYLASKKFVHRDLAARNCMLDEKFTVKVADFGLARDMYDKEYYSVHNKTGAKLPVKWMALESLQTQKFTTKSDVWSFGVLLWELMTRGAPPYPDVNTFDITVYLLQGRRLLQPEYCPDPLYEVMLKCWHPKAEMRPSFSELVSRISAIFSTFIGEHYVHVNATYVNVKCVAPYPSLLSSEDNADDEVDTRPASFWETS
The experiment in a line: flow cytometry on A431 cells. The protocol: (§1) The binding of anti-c-Met antibodies and monovalent forms thereof (also termed “UniBody molecules” herein, see Example 5) to A431 cells expressing membrane-bound c-Met (purchased at ATCC, CRL-1555) was tested using flow cytometry (FACS Canto II, BD Biosciences). […] Binding of anti-c-Met antibodies and UniBody molecules was detected using a Phycoerythrin-conjugated goat-anti-human IgG antibody (Jackson). IgG1-5D5 was used as positive control antibody, and HuMab-KLH was used as isotype control antibody. EC₅₀ values were determined by means of non-linear regression (sigmoidal dose-response with variable slope) using GraphPad Prism V4.03 software (GraphPad Software, San Diego, Calif., USA).
(§2) Also maximum binding levels were unchanged between IgG1's and UniBody molecules. For antibodies 005, 006, 008, 035, 045 and 058, on the other hand, a more than 2-fold […] as well as a decrease in maximum binding level was observed when comparing IgG1 with their UniBody counterpart. This was most likely due to the […] (Kd) of these antibodies (see Example 14).
Take B1: the “fold change of EC50, UniBody molecule against IgG1 of the identical clone” value (“fold change of EC50, UniBody molecule” for short) is less than 2 fold. The same measure, in the same setting: for B2 the value was more than 2 fold; for B3, less than 2 fold; for B4, less than 2 fold. The same measure, in the same setting: the figure for B5 is less than 2 fold; for B6 it is more than 2 fold. As for B7, the “fold change of EC50, UniBody molecule” value is more than 2 fold. Take B8: the “fold change of EC50, UniBody molecule” value is more than 2 fold.

Another assay deals with T2, rhHGF R/Fc Chimera (R&D Systems; Cat.358MT/CF) (human, UniProt P08581 25-932).
T2 construct: Bought reagent; Fc part of the bought chimera not given; not described
T2 sequence (P08581 25-932, change not shown): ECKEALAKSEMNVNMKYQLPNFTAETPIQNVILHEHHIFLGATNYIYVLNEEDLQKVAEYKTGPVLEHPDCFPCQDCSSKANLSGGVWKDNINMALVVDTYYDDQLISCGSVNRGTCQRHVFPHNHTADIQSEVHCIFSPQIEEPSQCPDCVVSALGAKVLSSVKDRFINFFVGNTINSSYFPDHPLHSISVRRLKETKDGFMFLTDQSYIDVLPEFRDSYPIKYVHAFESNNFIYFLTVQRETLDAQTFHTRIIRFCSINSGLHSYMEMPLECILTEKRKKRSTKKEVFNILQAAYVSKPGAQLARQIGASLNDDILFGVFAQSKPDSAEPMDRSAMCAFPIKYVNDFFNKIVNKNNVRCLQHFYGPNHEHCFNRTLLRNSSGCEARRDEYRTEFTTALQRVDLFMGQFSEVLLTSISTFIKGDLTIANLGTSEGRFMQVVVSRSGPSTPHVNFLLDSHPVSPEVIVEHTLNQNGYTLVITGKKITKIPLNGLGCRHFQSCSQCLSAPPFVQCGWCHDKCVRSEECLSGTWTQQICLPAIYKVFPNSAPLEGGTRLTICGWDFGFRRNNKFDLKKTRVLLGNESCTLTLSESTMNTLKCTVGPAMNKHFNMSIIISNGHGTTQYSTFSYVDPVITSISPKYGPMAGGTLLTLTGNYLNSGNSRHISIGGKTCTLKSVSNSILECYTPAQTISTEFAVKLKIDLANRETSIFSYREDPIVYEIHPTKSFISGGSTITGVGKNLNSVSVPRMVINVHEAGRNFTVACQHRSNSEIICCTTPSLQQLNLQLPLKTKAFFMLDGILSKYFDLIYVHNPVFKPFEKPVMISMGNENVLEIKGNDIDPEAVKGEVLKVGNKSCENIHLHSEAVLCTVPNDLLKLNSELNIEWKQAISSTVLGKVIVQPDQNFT
Put plainly: ELISA on coated rhHGF R/Fc Chimera. Here is the method: c-Met binding properties of the mutants were tested in an ELISA. ELISA plate wells were coated overnight at 4° C. with rhHGF R/Fc Chimera (R&D Systems; Cat.358MT/CF) in PBS (1 μg/mL). Next, the wells were washed with PBST (PBS supplemented with 0.05% Tween-20 [Sigma-Aldrich, Zwijndrecht, The Netherlands]) and blocked for one hour at room temperature (RT) with PBSTC (PBST supplemented 2% [v/v] chicken serum [Gibco, Paisley, Scotland]). Subsequently, the wells were washed with PBST and incubated for one hour at RT with the anti-cMet antibodies and variants serially diluted in PBSTC (10 μg/mL in 4-fold dilutions). […] After washing, the reaction was visualized by a 15 min incubation with 2,2′-azino-bis(3-ethylbenzothiazoline-6-sulfonic acid) (ABTS: dilute one ABTS tablet in 50 mL ABTS buffer [Roche Diagnostics, Almere, The Netherlands]) at RT protected from light. The colorization was stopped by adding an equal volume of oxalic acid (Sigma-Aldrich, Zwijndrecht, The Netherlands). […] at 405 nm was measured on a microtiter plate reader (Biotek Instruments, Winooski, USA).
For the molecule B4, the EC50 turned out to be 0.0301 µg/mL. Regarding B9, a half-maximal response (EC50) required 0.0188 µg/mL. In turn, B10 registered an EC50 of 0.0154 µg/mL. Still for that read-out and setting: for B11 the value was 0.0156 µg/mL; for B12, 0.0189 µg/mL; for B13, 0.023 µg/mL. Still for that read-out and setting: for B14 the value was 0.0296 µg/mL.

Consider B15, for which the response was half-maximal at 0.0142 µg/mL (EC50).

The target in the next assay is T1, human c-Met, membrane-bound on cells. Put plainly: flow cytometry on A431 cells (PE goat anti-human IgG); third panel. Here is the method:
as §1, §2
(Flow cytometry measures light scatter and fluorescence of single cells or particles in a stream.)
B3 registered a concentration giving a half-maximal response (EC50) of 2.42 nM. With B6, the concentration for a half-maximal effect (EC50) was 12.2 nM. For B8, the EC50 came to 9.32 nM.

The target is the same in the next assay. Put plainly: flow cytometry on A431 cells (PE goat anti-human IgG); bottom panel. Here is the method:
as §1, §2
As to B1, the midpoint of the response, the EC50, lay at 1.16 nM.

Take B4: a half-maximal response (EC50) required 0.6 nM. Consider B5, for which a half-maximal response (EC50) required 0.847 nM.

The target is the same in the next assay. Put plainly: flow cytometry on A431 cells (PE goat anti-human IgG); second panel. Here is the method: as §1, §2
Regarding B2, the EC50 was determined as 5.8 nM. For the molecule B7, the EC50 was determined as 1.85 nM.
